# Test results: US20230295259A1 (Protagonist Therapeutics, Inc., priority 2020, published 2023)
# Starred links: 1 amine or outer side, 2 acyl side, 3 side chain; linkers in the order of their positions; H or OH if unused. Positions of bridges follow the written chain, without caps; N, C: chain ends. Non-standard residues stand in square brackets, D forms with d. Groups on a side chain read outwards from the residue. *: point of attachment. Glu(OMe) = COC(=O)CC[C@H](N[*:1])C(=O)[*:2]; C18 diacid = O=C(O)CCCCCCCCCCCCCCCCC(=O)*; Dip = N[C@H](C(=O)O)C(c1ccccc1)c1ccccc1; Palmitoyl = CCCCCCCCCCCCCCCC(=O)*; β3hF = N[C@H](CC(=O)O)Cc1ccccc1; Cha = N[C@@H](CC1CCCCC1)C(=O)O; Tle = CC(C)(C)[C@H](N)C(=O)O; hLeu = CC(C)CC[C@H](N)C(=O)O; Isovaleryl = CC(C)CC(=O)*; Ac6c = NC1(C(=O)O)CCCCC1; Dap = NC[C@H](N)C(=O)O; AEEA = NCCOCCOCC(=O)O; Ahx = NCCCCCC(=O)O
# T1: human ferroportin (SLC40A1) fused in frame with GFP, stably expressed in HEK293 cells (human, UniProt Q9NP59 1-571)
# T1 sequence (looked up): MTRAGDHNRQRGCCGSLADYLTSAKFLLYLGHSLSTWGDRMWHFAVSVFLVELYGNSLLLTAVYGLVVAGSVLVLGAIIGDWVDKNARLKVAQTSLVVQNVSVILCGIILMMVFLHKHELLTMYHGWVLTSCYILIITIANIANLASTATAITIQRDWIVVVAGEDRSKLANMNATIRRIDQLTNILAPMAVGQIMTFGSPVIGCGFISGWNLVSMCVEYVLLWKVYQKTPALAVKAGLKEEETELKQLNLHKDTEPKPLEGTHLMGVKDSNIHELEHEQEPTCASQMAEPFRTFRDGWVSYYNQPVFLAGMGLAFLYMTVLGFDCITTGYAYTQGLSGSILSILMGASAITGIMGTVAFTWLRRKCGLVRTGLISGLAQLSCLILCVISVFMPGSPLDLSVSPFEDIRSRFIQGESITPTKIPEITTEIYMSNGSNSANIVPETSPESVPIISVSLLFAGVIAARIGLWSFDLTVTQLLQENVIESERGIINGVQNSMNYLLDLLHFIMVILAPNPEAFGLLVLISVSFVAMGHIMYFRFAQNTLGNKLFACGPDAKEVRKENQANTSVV
# B1: Seq. No. 552 (peptide)
# peptide: XETXXPCIXXXXC
# modifications: not fully specified; [Isovaleric Acid]-E-T-[Lys(Acrylamide)]-[Dpa]-P-C-I-[(D)Lys]-[bhPhe]-[Lys(Ahx_Palm)]-[(D)Lys]-C-NH2
# B2: Seq. No. 517 (peptide)
# peptide: XETHXPCIXXXC
# modifications: [Isovaleric Acid]-E-T-H-[Dpa]-P-C-I-[Lys(PEG12_Dap_C18_Diacid)]-[bhPhe]-[(D)Lys]-C-NH2
# B3: Seq. No. 503 (peptide)
# peptide: XXTHXPCIXXXC
# modifications: [Isovaleric Acid]-[Glu(OMe)]-T-H-[Dpa]-P-C-I-[Lys(1PEG2_1PEG2_Dap_C18_Diacid)]-[Phe(4-COOH)]-[(D)Lys]-C-NH2
# B4: Seq. No. 525 (peptide)
# peptide: XETHXPCIXXXXC
# modifications: [Isovaleric Acid]-E-T-H-[Dpa]-P-C-I-[(D)Lys]-[bhPhe]-[Lys(DMG_N_2ae_Palm)]-[(D)Lys]-C-NH2
# B5: Seq. No. 499 (peptide)
# peptide: XXTXXPCIXXXC
# modifications: [Isovaleric Acid]-[Glu(OMe)]-T-[4Pal]-[Dpa]-P-C-I-[Lys(1PEG2_1PEG2_Dap_C18_Diacid)]-[bhPhe]-[(D)Lys]-C-NH2
# B6: Seq. No. 526 (peptide)
# peptide: XXTHXPCIXXXXC
# modifications: [Isovaleric Acid]-[Glu(OMe)]-T-H-[Dpa]-P-C-I-[(D)Lys]-[bhPhe]-[Lys(DMG_N_2ae_Palm)]-[(D)Lys]-C-NH2
# B7: Seq. No. 527 (peptide)
# peptide: XETHXPCIXXXXC
# modifications: [Isovaleric Acid]-E-T-H-[Dpa]-P-C-I-[(D)Lys]-[bhPhe]-[Lys(Ahx_DMG_N_2ae_Palm)]-[(D)Lys]-C-NH2
# B8: Seq. No. 507 (peptide)
# peptide: XXTHXPCIXXXC
# modifications: [Isovaleric Acid]-[Glu(OMe)]-T-H-[Dpa]-P-C-I-[Lys(1PEG2_1PEG2_Dap_C18_Diacid)]-[Achc]-[(D)Lys]-C-NH2
# B9: Seq. No. 479 (peptide)
# peptide: XETXXPCIXXXC
# modifications: [Isovaleric Acid]-E-T-[3Quin]-[Dpa]-P-C-I-[Lys(1PEG2_1PEG2_Dap_C18_Diacid)]-[bhPhe]-[(D)Lys]-C-NH2
# B10: Seq. No. 505 (peptide)
# peptide: XXTHXPCIXXXC
# modifications: [Isovaleric Acid]-[Glu(OMe)]-T-H-[Dpa]-P-C-I-[Lys(1PEG2_1PEG2_Dap_C18_Diacid)]-[bhPhe(4-Me)]-[(D)Lys]-C-NH2
# B11: Seq. No. 540 (peptide)
# peptide: XXTHXPCIXXXC
# modifications: [Isovaleric Acid]-[(D)Glu]-T-H-[Dpa]-P-C-I-[Lys(1PEG2_1PEG2_Ahx_C18_Diacid)]-[bhPhe]-[(D)Lys(PEG11_OMe)]-C-NH2
# B12: Seq. No. 547 (peptide)
# peptide: XEXHXPCIXXXC
# modifications: not fully specified; [Isovaleric Acid]-E-[Dap]-H-[Dpa]-P-C-I-[Lys(1PEG2_1PEG2_Ahx_C18_Diacid)]-[bhPhe]-[(D)Lys]-C-NH2
# B13: Seq. No. 532 (peptide)
# peptide: XXTHXPCIXXXC
# modifications: [Isovaleric Acid]-[Glu(OMe)]-T-H-[Dpa]-P-C-I-[Lys(Ahx_DMG_N_2ae_Palm)]-[bhPhe]-[(D)Lys]-C-NH2
# B14: Seq. No. 530 (peptide)
# peptide: XXTHXPCIXXXC
# modifications: [Isovaleric Acid]-[Glu(OMe)]-T-H-[Dpa]-P-C-I-[Lys(PEG12_DMG_N_2ae_Palm)]-[bhPhe]-[(D)Lys]-C-NH2
# B15: Seq. No. 495 (peptide)
# peptide: XXTHXPXIXXXC
# modifications: [Isovaleric Acid]-[Glu(OMe)]-T-H-[Dpa]-P-[(D)Cys]-I-[Lys(PEG2_1PEG2_DMG_N_2ae_C18_Diacid)]-[bhPhe]-[(D)Lys]-C-NH2
# B16: Seq. No. 520 (peptide)
# peptide: XXTHXPCIXXXC
# modifications: [Isovaleric Acid]-[Glu(OMe)]-T-H-[Dpa]-P-C-I-[Lys(PEG12_Dap_C18_Diacid)]-[bhPhe]-[(D)Lys]-C-NH2
# Biological target: T1, human ferroportin (SLC40A1) fused in …
# Test: cell-based or functional assay
row,IC50: FPN internalisation,Binder
1,16.9 nM,Isovaleryl-[Glu(OMe)]TH[Dip]PC[Cha]K([AEEA-AEEA-Dap-C18 diacid])[β3hF][dK]C-NH2 (disulfide 6-11 (inferred)) [Seq. No. 511]
2,48 nM,B1
3,9.58 nM,B2
4,180 nM,B3
5,7.98 nM,B4
6,42.8 nM,Isovaleryl-ETH[Dip]PCI[dK][β3hF]K([Ahx-Palmitoyl])[dR]C-NH2 (disulfide 6-12 (inferred)) [Seq. No. 475]
7,20.6 nM,Isovaleryl-[Glu(OMe)]TH[Dip]PCIK([AEEA-AEEA-Dap-C18 diacid])[hLeu][dK]C-NH2 (disulfide 6-11 (inferred)) [Seq. No. 509]
8,52.5 nM,Isovaleryl-[Glu(OMe)]TH[Dip]PCI[dK][β3hF]K([Ahx-Palmitoyl])[dR]C[dR]-NH2 (disulfide 6-12 (inferred)) [Seq. No. 500]
9,14.3 nM,B5
10,28.1 nM,B6
11,12.5 nM,Isovaleryl-[Glu(OMe)]TH[Dip]PC[hLeu]K([AEEA-AEEA-Dap-C18 diacid])[β3hF][dK]C-NH2 (disulfide 6-11 (inferred)) [Seq. No. 515]
12,54.6 nM,Isovaleryl-ETH[Dip]PCI[dK][β3hF]K([Ahx-Palmitoyl])[dR]C[dR]-NH2 (disulfide 6-12 (inferred)) [Seq. No. 474]
13,31 nM,B7
14,29.6 nM,B8
15,13.6 nM,Isovaleryl-[Glu(OMe)]TH[Dip]PC[Tle]K([AEEA-AEEA-Dap-C18 diacid])[β3hF][dK]C-NH2 (disulfide 6-11 (inferred)) [Seq. No. 514]
16,475 nM,B9
17,16.7 nM,B10
18,37.4 nM,Isovaleryl-[Glu(OMe)]TH[Dip]PC[Ac6c]K([AEEA-AEEA-Dap-C18 diacid])[β3hF][dK]C-NH2 (disulfide 6-11 (inferred)) [Seq. No. 512]
19,142 nM,B11
20,24.8 nM,B12
21,21 nM,Isovaleryl-[Glu(OMe)]TH[Dip]PCIK([AEEA-AEEA-Dap-C18 diacid])[β3hF][dR]C-NH2 (disulfide 6-11 (inferred)) [Seq. No. 535]
22,39.9 nM,Isovaleryl-[Glu(OMe)]TH[Dip]PCI[dK][β3hF]K([Ahx-Palmitoyl])[dR]C-NH2 (disulfide 6-12 (inferred)) [Seq. No. 501]
23,7.14 nM,B13
24,37.4 nM,B14
25,14.9 nM,B15
26,19.9 nM,B16
